Experimental data as given in publication PMC8528823.
pKd: −log10 of the molar value.

Biological target: Mouse Fc (mFc) tagged mink ACE2 (mink (Neovison vison))
Assay: SPR

Work on “SARS-CoV-2 WT RBD (from UniProt P0DTC2 319-541) (domain or fragment)” yielded a pKd of 5.09.
